Measurements taken from paper PMC7782096, “BAP1 suppresses prostate cancer progression by deubiquitinating and stabilizing PTEN” (Molecular Oncology, 2020).

Biological target: T1, His-tagged BAP1 protein (UniProt Q92560 1-729)
T1 construct: BAP1, full length, inserted into pET-28a; also called His-BAP1; source: E. coli expressing system, purified
T1 sequence (looked up): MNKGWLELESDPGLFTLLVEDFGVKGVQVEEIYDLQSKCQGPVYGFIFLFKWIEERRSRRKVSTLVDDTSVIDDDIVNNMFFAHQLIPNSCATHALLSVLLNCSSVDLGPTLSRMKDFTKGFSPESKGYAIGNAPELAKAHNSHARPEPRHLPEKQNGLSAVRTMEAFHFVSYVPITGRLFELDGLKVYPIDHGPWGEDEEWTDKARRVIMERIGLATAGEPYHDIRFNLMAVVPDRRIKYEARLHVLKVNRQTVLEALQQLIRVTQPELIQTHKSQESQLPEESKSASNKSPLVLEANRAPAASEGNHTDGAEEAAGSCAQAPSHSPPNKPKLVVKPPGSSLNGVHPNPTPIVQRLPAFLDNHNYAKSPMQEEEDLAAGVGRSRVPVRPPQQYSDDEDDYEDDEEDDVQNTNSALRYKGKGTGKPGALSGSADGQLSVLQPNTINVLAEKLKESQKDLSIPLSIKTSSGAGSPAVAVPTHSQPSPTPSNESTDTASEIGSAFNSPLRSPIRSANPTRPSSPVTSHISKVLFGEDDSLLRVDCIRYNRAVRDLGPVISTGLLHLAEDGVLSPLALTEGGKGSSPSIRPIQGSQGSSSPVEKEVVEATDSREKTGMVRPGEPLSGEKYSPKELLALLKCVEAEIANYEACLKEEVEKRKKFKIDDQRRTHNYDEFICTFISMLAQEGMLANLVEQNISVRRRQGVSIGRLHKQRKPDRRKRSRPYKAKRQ
Experiment: pull-down; purified GST-PTEN on GST beads incubated with recombinant His-BAP1 purified from E. coli, 4 °C; western blotting
Conditions: both partners purified

B1: GST-tagged PTEN recombinant protein (natural protein)
chain: not shown
notes: PTEN; also called GST-PTEN; source: bacterially expressed (E. coli), purified
- binding result: binds
